# The Immune Epitope Database (IEDB)
# pIC50, pKd: −log10 of the molar value.
# Key:
# HLA-A*01:01 = experiment: IEDB peptide-MHC binding, purified MHC/direct/fluorescence; filed as Kd, often an IC50 or EC50 that approximates it; ≥ and ≤ were set here for values at or beyond the usual limits of such assays
# HLA-A*02:01 [1] = experiment: as above
# HLA-A*03:01 = experiment: as above
# HLA-A*26:01 = experiment: as above; settings: source organism: Salmonella enterica subsp. enterica serovar Typhimurium
# HLA-B*07:02 = experiment: as above
# HLA-B*15:01 = experiment: as above
# HLA-B*15:17 = experiment: as above; settings: source organism: Salmonella enterica subsp. enterica serovar Typhimurium
# HLA-B*27:05 = experiment: as above
# HLA-B*57:01 = experiment: as above
# HLA-B*58:01 = experiment: as above
# HLA-A*02:01 [2] = experiment: IEDB peptide-MHC binding, purified MHC/competitive/radioactivity; filed as Kd, often an IC50 or EC50 that approximates it; ≥ and ≤ were set here for values at or beyond the usual limits of such assays
# HLA-A*02:17 = experiment: as above
# HLA-A*02:03 = experiment: as above; settings: source organism: Dengue virus 1 Brazil/97-11/1997
# HLA-A*02:06 = experiment: as above; settings: source organism: Dengue virus 1 Brazil/97-11/1997
# HLA-A*32:01 = experiment: as above; settings: source organism: Dengue virus 1 Brazil/97-11/1997
# HLA-A*68:02 = experiment: as above; settings: source organism: Dengue virus 1 Brazil/97-11/1997
# HLA-B*08:01 [3] = experiment: as above; settings: source organism: Dengue virus 1 Brazil/97-11/1997
# HLA-A*02:01 [4] = experiment: IEDB peptide-MHC binding, purified MHC/competitive/fluorescence; ≥ and ≤ were set here for values at or beyond the usual limits of such assays; settings: source organism: Zaire ebolavirus
# HLA-A*24:02 = experiment: as above; settings: source organism: Zaire ebolavirus
# HLA-B*08:01 [5] = experiment: as above; settings: source organism: Zaire ebolavirus
# HLA-A*11:01 = experiment: IEDB peptide-MHC binding, purified MHC/direct/fluorescence; filed as Kd, often an IC50 or EC50 that approximates it; ≥ and ≤ were set here for values at or beyond the usual limits of such assays
# HLA-A*29:02 = experiment: as above
# HLA-A*31:01 = experiment: as above
# HLA-A*69:01 = experiment: as above
# HLA-B*18:01 = experiment: as above
# HLA-B*39:01 = experiment: as above
# HLA-B*40:01 = experiment: as above; settings: source organism: West Nile virus
# HLA-B*44:02 = experiment: as above
# HLA-B*46:01 = experiment: as above
# HLA-B*48:01 = experiment: as above
# [6] = source organism: Salmonella enterica subsp. enterica serovar Typhimurium
# [7] = source organism: Dengue virus 3 China/80-2/1980
# [8] = source organism: Dengue virus 1 Singapore/S275/1990
# [9] = source organism: Dengue virus 4 Philippines/H241/1956
# [10] = source organism: Dengue virus 2 Jamaica/1409/1983
# [11] = source organism: West Nile virus
# [12] = source organism: Mycobacterium avium 104
sequence,measurement,setting,value
KSNGAQQWL,pKd,HLA-A*01:01; [6],≤ 4.70
same,pKd,HLA-A*02:01 [1]; [6],≤ 4.70
same,pKd,HLA-A*03:01; [6],≤ 4.70
same,pKd,HLA-A*26:01,≤ 4.70
same,pKd,HLA-B*07:02; [6],≤ 4.70
same,pKd,HLA-B*15:01; [6],≤ 4.70
same,pKd,HLA-B*15:17,8.22
same,pKd,HLA-B*27:05; [6],≤ 4.70
same,pKd,HLA-B*57:01; [6],5.66
same,pKd,HLA-B*58:01; [6],6.45
VLLLVTHYA,pKd,HLA-A*02:01 [2]; [7],8.16
same,pKd,HLA-A*02:17; [7],5.17
MLMTGTLAV,pKd,HLA-A*02:01 [2]; [8],7.71
same,pKd,HLA-A*02:03,9.33
same,pKd,HLA-A*02:06,8.01
same,pKd,HLA-A*02:17; [8],6.12
same,pKd,HLA-A*32:01,6.30
same,pKd,HLA-A*68:02,8.01
same,pKd,HLA-B*08:01 [3],7.65
IILEFFLMVL,pKd,HLA-A*02:01 [2]; [9],7.02
same,pKd,HLA-A*02:06,6.48
same,pKd,HLA-A*02:17; [9],5.85
DMDYHKILT,pIC50,HLA-A*02:01 [4],≤ 3.56
same,pIC50,HLA-A*24:02,5.39
same,pIC50,HLA-B*08:01 [5],≤ 3.70
IMAAILAYTI,pKd,HLA-A*02:01 [2]; [10],7.51
same,pKd,HLA-A*02:17; [10],5.80
YCPGTTVTL,pKd,HLA-A*01:01; [11],≤ 4.70
same,pKd,HLA-A*03:01; [11],≤ 4.70
same,pKd,HLA-A*11:01; [11],≤ 4.70
same,pKd,HLA-A*29:02; [11],≤ 4.70
same,pKd,HLA-A*31:01; [11],≤ 4.70
same,pKd,HLA-A*69:01; [11],≤ 4.70
same,pKd,HLA-B*07:02; [11],≤ 4.70
same,pKd,HLA-B*15:01; [11],≤ 4.70
same,pKd,HLA-B*18:01; [11],≤ 4.70
same,pKd,HLA-B*27:05; [11],≤ 4.70
same,pKd,HLA-B*39:01; [11],5.88
same,pKd,HLA-B*40:01,≤ 4.70
same,pKd,HLA-B*44:02; [11],≤ 4.70
same,pKd,HLA-B*46:01; [11],≤ 4.70
same,pKd,HLA-B*48:01; [11],≤ 4.70
same,pKd,HLA-B*57:01; [11],≤ 4.70
EHVQGDIDL,pKd,HLA-A*01:01; [12],≤ 4.70
same,pKd,HLA-A*02:01 [1]; [12],≤ 4.70
same,pKd,HLA-A*03:01; [12],≤ 4.70
same,pKd,HLA-A*11:01; [12],≤ 4.70
same,pKd,HLA-A*29:02; [12],≤ 4.70
same,pKd,HLA-A*31:01; [12],≤ 4.70
same,pKd,HLA-A*69:01; [12],≤ 4.70
same,pKd,HLA-B*07:02; [12],≤ 4.70
same,pKd,HLA-B*15:01; [12],≤ 4.70
same,pKd,HLA-B*18:01; [12],≤ 4.70
same,pKd,HLA-B*27:05; [12],≤ 4.70
same,pKd,HLA-B*39:01; [12],6.65
same,pKd,HLA-B*44:02; [12],≤ 4.70
same,pKd,HLA-B*46:01; [12],≤ 4.70
same,pKd,HLA-B*48:01; [12],≤ 4.70
same,pKd,HLA-B*57:01; [12],≤ 4.70
same,pKd,HLA-B*58:01; [12],≤ 4.70
